“And” between values parts separate entries of the source, which are not always exact repeats. Equal entries are not always repeated.
How the values were obtained:
[1] = system: yeast 43S PIC: 40S+eIF1+eIF1A+eIF2 (Met-tRNAi TC); for mRNA recruitment also eIF5, eIF4A, eIF4B, eIF4E-eIF4G (Saccharomyces cerevisiae); test: EMSA; settings: no eIF3, measurement 1, m7G cap, 30 mM HEPES-KOH pH 7.4, 100 mM KOAc, 3 mM Mg(OAc)2, 2 mM DTT, 1 mM GDPNP, 26 C, 2 h, native 4% THEM gel
[2] = system: yeast 43S PIC: 40S+eIF1+eIF1A+eIF2 (Met-tRNAi TC); for mRNA recruitment also eIF5, eIF4A, eIF4B, eIF4E-eIF4G;eIF3 (a Box37) (Saccharomyces cerevisiae;Saccharomyces cerevisiae); test: EMSA; settings: measurement 1; m7G cap; 30 mM HEPES-KOH pH 7.4, 100 mM KOAc, 3 mM Mg(OAc)2, 2 mM DTT, 1 mM GDPNP, 26 C, 2 h; native 4% THEM gel
[3] = system: yeast 43S PIC: 40S+eIF1+eIF1A+eIF2 (Met-tRNAi TC); for mRNA recruitment also eIF5, eIF4A, eIF4B, eIF4E-eIF4G;eIF3 (a Box6) (Saccharomyces cerevisiae;Saccharomyces cerevisiae); test: EMSA; settings: measurement 1; m7G cap; 30 mM HEPES-KOH pH 7.4, 100 mM KOAc, 3 mM Mg(OAc)2, 2 mM DTT, 1 mM GDPNP, 26 C, 2 h; native 4% THEM gel
[4] = system: yeast 43S PIC: 40S+eIF1+eIF1A+eIF2 (Met-tRNAi TC); for mRNA recruitment also eIF5, eIF4A, eIF4B, eIF4E-eIF4G;eIF3 (a H725P) (Saccharomyces cerevisiae;Saccharomyces cerevisiae); test: EMSA; settings: measurement 1; m7G cap; 30 mM HEPES-KOH pH 7.4, 100 mM KOAc, 3 mM Mg(OAc)2, 2 mM DTT, 1 mM GDPNP, 26 C, 2 h; native 4% THEM gel
[5] = system: yeast 43S PIC: 40S+eIF1+eIF1A+eIF2 (Met-tRNAi TC); for mRNA recruitment also eIF5, eIF4A, eIF4B, eIF4E-eIF4G;eIF3 (a R731I) (Saccharomyces cerevisiae;Saccharomyces cerevisiae); test: EMSA; settings: measurement 1; m7G cap; 30 mM HEPES-KOH pH 7.4, 100 mM KOAc, 3 mM Mg(OAc)2, 2 mM DTT, 1 mM GDPNP, 26 C, 2 h; native 4% THEM gel
[6] = system: yeast 43S PIC: 40S+eIF1+eIF1A+eIF2 (Met-tRNAi TC); for mRNA recruitment also eIF5, eIF4A, eIF4B, eIF4E-eIF4G;eIF3 (a delta8) (Saccharomyces cerevisiae;Saccharomyces cerevisiae); test: EMSA; settings: measurement 1, m7G cap, 30 mM HEPES-KOH pH 7.4, 100 mM KOAc, 3 mM Mg(OAc)2, 2 mM DTT, 1 mM GDPNP, 26 C, 2 h, native 4% THEM gel
[7] = system: yeast 43S PIC: 40S+eIF1+eIF1A+eIF2 (Met-tRNAi TC); for mRNA recruitment also eIF5, eIF4A, eIF4B, eIF4E-eIF4G;eIF3 (b prt1-1) (Saccharomyces cerevisiae;Saccharomyces cerevisiae); test: EMSA; settings: measurement 1; m7G cap; 30 mM HEPES-KOH pH 7.4, 100 mM KOAc, 3 mM Mg(OAc)2, 2 mM DTT, 1 mM GDPNP, 26 C, 2 h; native 4% THEM gel
[8] = system: yeast 43S PIC: 40S+eIF1+eIF1A+eIF2 (Met-tRNAi TC); for mRNA recruitment also eIF5, eIF4A, eIF4B, eIF4E-eIF4G;eIF3 (b rnp1) (Saccharomyces cerevisiae;Saccharomyces cerevisiae); test: EMSA; settings: measurement 1; m7G cap; 30 mM HEPES-KOH pH 7.4, 100 mM KOAc, 3 mM Mg(OAc)2, 2 mM DTT, 1 mM GDPNP, 26 C, 2 h; native 4% THEM gel
[9] = system: yeast 43S PIC: 40S+eIF1+eIF1A+eIF2 (Met-tRNAi TC); for mRNA recruitment also eIF5, eIF4A, eIF4B, eIF4E-eIF4G;eIF3 (c Box12-SPW) (Saccharomyces cerevisiae;Saccharomyces cerevisiae); test: EMSA; settings: measurement 1; m7G cap; 30 mM HEPES-KOH pH 7.4, 100 mM KOAc, 3 mM Mg(OAc)2, 2 mM DTT, 1 mM GDPNP, 26 C, 2 h; native 4% THEM gel
[10] = system: yeast 43S PIC: 40S+eIF1+eIF1A+eIF2 (Met-tRNAi TC); for mRNA recruitment also eIF5, eIF4A, eIF4B, eIF4E-eIF4G;eIF3 (c GAP85) (Saccharomyces cerevisiae;Saccharomyces cerevisiae); test: EMSA; settings: measurement 1; m7G cap; 30 mM HEPES-KOH pH 7.4, 100 mM KOAc, 3 mM Mg(OAc)2, 2 mM DTT, 1 mM GDPNP, 26 C, 2 h; native 4% THEM gel
[11] = system: yeast 43S PIC: 40S+eIF1+eIF1A+eIF2 (Met-tRNAi TC); for mRNA recruitment also eIF5, eIF4A, eIF4B, eIF4E-eIF4G;eIF3 (c delta60) (Saccharomyces cerevisiae;Saccharomyces cerevisiae); test: EMSA; settings: measurement 1; m7G cap; 30 mM HEPES-KOH pH 7.4, 100 mM KOAc, 3 mM Mg(OAc)2, 2 mM DTT, 1 mM GDPNP, 26 C, 2 h; native 4% THEM gel
[12] = system: yeast 43S PIC: 40S+eIF1+eIF1A+eIF2 (Met-tRNAi TC); for mRNA recruitment also eIF5, eIF4A, eIF4B, eIF4E-eIF4G;eIF3 (g KLF) (Saccharomyces cerevisiae;Saccharomyces cerevisiae); test: EMSA; settings: measurement 1; m7G cap; 30 mM HEPES-KOH pH 7.4, 100 mM KOAc, 3 mM Mg(OAc)2, 2 mM DTT, 1 mM GDPNP, 26 C, 2 h; native 4% THEM gel
[13] = system: yeast 43S PIC: 40S+eIF1+eIF1A+eIF2 (Met-tRNAi TC); for mRNA recruitment also eIF5, eIF4A, eIF4B, eIF4E-eIF4G;eIF3 (i Q258R) (Saccharomyces cerevisiae;Saccharomyces cerevisiae); test: EMSA; settings: measurement 1; m7G cap; 30 mM HEPES-KOH pH 7.4, 100 mM KOAc, 3 mM Mg(OAc)2, 2 mM DTT, 1 mM GDPNP, 26 C, 2 h; native 4% THEM gel
[14] = system: yeast 43S PIC: 40S+eIF1+eIF1A+eIF2 (Met-tRNAi TC); for mRNA recruitment also eIF5, eIF4A, eIF4B, eIF4E-eIF4G;eIF3 WT (a/b/c/i/g) (Saccharomyces cerevisiae;Saccharomyces cerevisiae); test: EMSA; settings: measurement 1; m7G cap; 30 mM HEPES-KOH pH 7.4, 100 mM KOAc, 3 mM Mg(OAc)2, 2 mM DTT, 1 mM GDPNP, 26 C, 2 h; native 4% THEM gel
[15] = system: yeast 43S PIC: 40S+eIF1+eIF1A+eIF2 (Met-tRNAi TC); for mRNA recruitment also eIF5, eIF4A, eIF4B, eIF4E-eIF4G;eIF3 a/b/c sub-complex (Saccharomyces cerevisiae;Saccharomyces cerevisiae); test: EMSA; settings: measurement 1; m7G cap; 30 mM HEPES-KOH pH 7.4, 100 mM KOAc, 3 mM Mg(OAc)2, 2 mM DTT, 1 mM GDPNP, 26 C, 2 h; native 4% THEM gel
[16] = molecular target: 43S pre-initiation complex (40S, eIF1, eIF1A, ternary complex; no mRNA) (S. cerevisiae) (UniProt P32911); test: native gel or EMSA; gel shift monitoring [35S]-Met-tRNAi; 43S PICs without mRNA (1 µM eIF1, 1 µM eIF1A, 200 nM eIF2, 1 mM GDPNP•Mg2+, 2 nM Met-tRNAi, 30 nM 40S); eIF3 titrated 30-500 nM; 1X Recon buffer (30 mM HEPES-KOH pH 7.4, 100 mM KOAc, 3 mM Mg(OAc)2, 2 mM DTT), 26 °C, 2 h; apparent KD, Hill equation; single experiments; apparent affinities ≤ 30 nM likely upper limits

| Kd [16] | Substance | binding signal ([1]; almost no recruitment) [% recruited] | binding signal [2] [% recruited] | binding signal [3] [% recruited] | binding signal [4] [% recruited] | binding signal [5] [% recruited] | binding signal ([6]; text: no recruitment) [% recruited] | binding signal [7] [% recruited] | binding signal [8] [% recruited] | binding signal [9] [% recruited] | binding signal [10] [% recruited] | binding signal [11] [% recruited] | binding signal [12] [% recruited] | binding signal [13] [% recruited] | binding signal [14] [% recruited] | binding signal [15] [% recruited] | binding signal [1] [% recruited] | binding signal [6] [% recruited] | binding signal ([1]; columns as in Fig 5) [% recruited] |
| --- | --- | --- | --- | --- | --- | --- | --- | --- | --- | --- | --- | --- | --- | --- | --- | --- | --- | --- | --- |
|  | 3'5-AUG model mRNA | 1.04 | 67.2 | 73.3 | 77.1 | 73.6 | 5.17 | 77.9 | 66.2 | 75.1 | 81 | 78.3 | 72.6 | 71 | 78.9 | 50.3 |  |  |  |
|  | 3'17-AUG model mRNA |  |  |  |  |  |  |  |  |  |  |  |  |  | 97.2 |  | 71.4 | 89.9 |  |
|  | 5'5-AUG model mRNA |  | 82.5 | 62.5 | 58.2 | 57.7 |  | 79.9 | 69.4 | 85.3 | 80.1 | 87.9 | 84.7 | 80.3 | 84.1 | 32.1 | 68.2 | 91.7 |  |
|  | 5'11-AUG model mRNA |  |  | 97.8 | 94.6 | 91.8 |  |  |  |  |  |  |  |  | 97.9 | 66.7 |  |  | 90.9 |
| 43 nM and 24 nM | eIF3 (wild type) (from UniProt P38249 1-964; P06103 1-763; P32497 1-812; P40217 1-347; Q04067 1-274) (complex) |  |  |  |  |  |  |  |  |  |  |  |  |  |  |  |  |  |  |

Source: PMC5153249
